Two molecules from article PMC12678800 can be followed below.

One data set deals with T1, TkoTpt1 (Thermococcus kodakarensis, UniProt Q5JFX3 1-180).
T1 sequence: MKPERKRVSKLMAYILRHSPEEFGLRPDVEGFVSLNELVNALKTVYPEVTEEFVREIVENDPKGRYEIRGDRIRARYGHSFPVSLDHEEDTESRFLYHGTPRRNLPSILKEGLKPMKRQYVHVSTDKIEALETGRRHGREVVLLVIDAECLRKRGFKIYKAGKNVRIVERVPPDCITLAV
Kind of data set: X-ray crystallography.

Another data set concerns the target T2, TkoTpt1 K63A (Thermococcus kodakarensis, UniProt Q5JFX3 1-180, K63A).
T2 sequence: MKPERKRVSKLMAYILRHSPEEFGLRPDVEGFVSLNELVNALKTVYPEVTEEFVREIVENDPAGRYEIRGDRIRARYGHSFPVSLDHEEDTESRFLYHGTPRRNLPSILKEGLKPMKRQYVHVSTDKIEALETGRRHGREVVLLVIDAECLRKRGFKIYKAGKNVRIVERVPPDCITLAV
Kind of data set: X-ray crystallography.

B1: 5'-p-DNA (oligo dA10) (ssDNA)
DNA: AAAAAAAAAA
modifications: 5'-phosphate (lost to NAD+ in the Appr>P complexes, giving 5'-OH DNA)
As for B1, the binding result with TkoTpt1 was “binds”.

B2: 5'-p-ADPR-DNA (dA10 intermediate) (ssDNA)
DNA: AAAAAAAAAA
modifications: 5'-phospho-ADP-ribosylated, formed in situ from 5'-p-DNA and NAD+
For B2, in the data set with TkoTpt1 K63A, the binding result is “binds”.
